{"source": "paper PMC6892150", "about": "“Dimerization of MORC2 through its C-terminal coiled-coil domain enhances chromatin dynamics and promotes DNA repair” (Cell Communication and Signaling : CCS, 2019)", "target": "the molecule itself", "assay": "cross-linking; Flag-MORC2 purified from HEK293T, chemical cross-linking, immunoblotting", "data": [{"protein": "microrchidia family CW-type zinc finger protein 2 (MORC2), full length, Flag- or HA-tagged (natural protein, human, UniProt Q9Y6X9 1-1032, looked up, MORC2, human, full length (1032 residues by the printed numbering 950-1032 for the C-terminus); Flag-MORC2 and HA-MORC2 are two differently tagged copies of the same full-length protein; each chain carries one tag only; Written as one molecule because they are co-precipitated with each other to show self-association; Flag-MORC2 was the copy purified for cross-linking; HA-MORC2 was the copy …) MAFTNYSSLNRAQLTFEYLHTNSTTHEFLFGALAELVDNARDADATRIDIYAERREDLRGGFMLCFLDDGAGMDPSDAASVIQFGKSAKRTPESTQIGQYGNGLKSGSMRIGKDFILFTKKEDTMTCLFLSRTFHEEEGIDEVIVPLPTWNARTREPVTDNVEKFAIETELIYKYSPFRTEEEVMTQFMKIPGDSGTLVIIFNLKLMDNGEPELDIISNPRDIQMAETSPEGTKPERRSFRAYAAVLYIDPRMRIFIHGHKVQTKRLSCCLYKPRMYKYTSSRFKTRAEQEVKKAEHVARIAEEKAREAESKARTLEVRLGGDLTRDSRVMLRQVQNRAITLRREADVKKRIKEAKQRALKEPKELNFVFGVNIEHRDLDGMFIYNCSRLIKMYEKVGPQLEGGMACGGVVGVVDVPYLVLEPTHNKQDFADAKEYRHLLRAMGEHLAQYWKDIAIAQRGIIKFWDEFGYLSANWNQPPSSELRYKRRRAMEIPTTIQCDLCLKWRTLPFQLSSVEKDYPDTWVCSMNPDPEQDRCEASEQKQKVPLGTFRKDMKTQEEKQKQLTEKIRQQQEKLEALQKTTPIRSQADLKKLPLEVTTRPSTEEPVRRPQRPRSPPLPAVIRNAPSRPPSLPTPRPASQPRKAPVISSTPKLPALAAREEASTSRLLQPPEAPRKPANTLVKTASRPAPLVQQLSPSLLPNSKSPREVPSPKVIKTPVVKKTESPIKLSPATPSRKRSVAVSDEEEVEEEAERRKERCKRGRFVVKEEKKDSNELSDSAGEEDSADLKRAQKDKGLHVEVRVNREWYTGRVTAVEVGKHVVRWKVKFDYVPTDTTPRDRWVEKGSEDVRLMKPPSPEHQSLDTQQEGGEEEVGPVAQQAIAVAEPSTSECLRIEPDTTALSTNHETIDLLVQILRNCLRYFLPPSFPISKKQLSAMNSDELISFPLKEYFKQYEVGLQNLCNSYQSRADSRAKASEESLRTSERKLRETEEKLQKLRTNIVALLQKVQEDIDINTDDELDAYIEDLITKGD", "values": [{"measurement": "stoichiometry N", "result": 2}]}]}
